Data reported in the supplement of paper PMC10567573.

B1: SOAT2 (parent)
chain: SLGKQKVFIIRKSLLDELMEVQHF

Variants of: B1
Assay: protein stability index of a GFP-peptide fusion (GPS, HEK-293T) (PSI 1-6); higher = more stable
Conditions: c terminus: a fixed tail appended
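Further: lentivirally expressed fusions sorted by FACS into six bins by GFP to DsRed ratio, PSI derived from sequencing read proportions per bin multiplied by bin number.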

| Variant | protein stability index |
| --- | --- |
| SLGKQKVFIIRKSLLDELFEVQHF [M19F] | 3.18 |
| SLGKQKVFIIRKSLLDELCEVQHF [M19C] | 2.15 |
| SLGKQKVFIIRKSLLDELTEVQHF [M19T] | 1.74 |
| SLGKQKVFIIRKSLLDELVEVQHF [M19V] | 1.66 |
| SLGKQKVFIIRKSLLDELWEVQHF [M19W] | 2.41 |
| SLGKQKVFIIRKSLLDELLEVQHF [M19L] | 2.67 |
| SLGKQKVFIIRKSLLDELPEVQHF [M19P] | 2.08 |
| SLGKQKVFIIRKSLLDELQEVQHF [M19Q] | 2.25 |
| SLGKQKVFIIRKSLLDELEEVQHF [M19E] | 1.69 |
| SLGKQKVFIIRKSLLDELREVQHF [M19R] | 1.94 |
| SLGKQKVFIIRKSLLDELAEVQHF [M19A] | 3.02 |
| SLGKQKVFIIRKSLLDELIEVQHF [M19I] | 2.25 |
| SLGKQKVFIIRKSLLDELNEVQHF [M19N] | 3.23 |
| SLGKQKVFIIRKSLLDELKEVQHF [M19K] | 2.89 |
| SLGKQKVFIIRKSLLDELHEVQHF [M19H] | 2.93 |
| SLGKQKVFIIRKSLLDELDEVQHF [M19D] | 2.24 |
| SLGKQKVFINRKSLLDELMEVQHF [I10N] | 1.72 |
| SLGKQKVFIYRKSLLDELMEVQHF [I10Y] | 1.48 |
| SLGKQKVFISRKSLLDELMEVQHF [I10S] | 1.8 |
| SLGKQKVFIVRKSLLDELMEVQHF [I10V] | 2.52 |
| SLGKQKVFIPRKSLLDELMEVQHF [I10P] | 2.08 |
| SLGKQKVFIWRKSLLDELMEVQHF [I10W] | 1.89 |
| SLGKQKVFITRKSLLDELMEVQHF [I10T] | 1.98 |
| SLGKQKVFIMRKSLLDELMEVQHF [I10M] | 3.04 |

| Variant | protein stability index |
| --- | --- |
| SLGKQKVFIQRKSLLDELMEVQHF [I10Q] | 1.87 |
| SLGKQKVFIRRKSLLDELMEVQHF [I10R] | 1.69 |
| SLGKQKVFIIRKSLLDELMIVQHF [E20I] | 2.03 |
| SLGKQKVFIIRKSLLDELMLVQHF [E20L] | 3.13 |
| SLGKQKVFIIRKSLLDELMDVQHF [E20D] | 1.63 |
| SLGKQKVFIIRKSLLDELMTVQHF [E20T] | 2.8 |
| SLGKQKVFIIRKSLLDELMKVQHF [E20K] | 2.57 |
| SLGKQKVFIIRKSLLDELMNVQHF [E20N] | 3.04 |
| SLGKQKVFIIRKSLLDELMSVQHF [E20S] | 2.48 |
| SLGKQKVFIIRKSLLDELMHVQHF [E20H] | 1.45 |
| SLGKQKVFIIRKSLLDELMCVQHF [E20C] | 2.19 |
| SLGKQKVFIIRKSLLDELMRVQHF [E20R] | 2.84 |
| SLGKQKVFIIRKSLLDELMQVQHF [E20Q] | 1.62 |
| SLGKQKVFIIRKSLLDELMGVQHF [E20G] | 2.85 |
| SLGKQKVFIIRKSLLDELMMVQHF [E20M] | 2.66 |
| SLGKQKVFIIRKSLLDELMPVQHF [E20P] | 1.45 |
| SLGKQKVFIIRKSLLDELMFVQHF [E20F] | 3.11 |
| SLGKQKVFIILKSLLDELMEVQHF [R11L] | 2.96 |
| SLGKQKVFIIVKSLLDELMEVQHF [R11V] | 2.19 |
| SLGKQKVFIIEKSLLDELMEVQHF [R11E] | 2.99 |
| SLGKQKVFIICKSLLDELMEVQHF [R11C] | 2.61 |
| SLGKQKVFIIMKSLLDELMEVQHF [R11M] | 1.53 |
| SLGKQKVFIIHKSLLDELMEVQHF [R11H] | 2.43 |
| SLGKQKVFIITKSLLDELMEVQHF [R11T] | 2.61 |

| Variant | protein stability index |
| --- | --- |
| SLGKQKVFIIWKSLLDELMEVQHF [R11W] | 2.53 |
| SLGKQKVFIIPKSLLDELMEVQHF [R11P] | 1.78 |
| SLGKQKVFIIDKSLLDELMEVQHF [R11D] | 2.22 |
| SLGKQKVFIIQKSLLDELMEVQHF [R11Q] | 2.54 |
| SLGKQKVFIISKSLLDELMEVQHF [R11S] | 2.11 |
| SLGKQKVFIIKKSLLDELMEVQHF [R11K] | 1.77 |
| SLGKQKVFIIFKSLLDELMEVQHF [R11F] | 1.78 |
| SLGKQKVFIIIKSLLDELMEVQHF [R11I] | 2.78 |
| SLGKQKVFIIAKSLLDELMEVQHF [R11A] | 2.83 |
| SLGKQKVFIIYKSLLDELMEVQHF [R11Y] | 3.21 |
| SLGKQKVFIIGKSLLDELMEVQHF [R11G] | 3.02 |
| SLGKQKVFIIRKELLDELMEVQHF [S13E] | 2.55 |
| SLGKQKVFIIRKGLLDELMEVQHF [S13G] | 1.33 |
| SLGKQKVFIIRKKLLDELMEVQHF [S13K] | 1.67 |
| SLGKQKVFIIRKNLLDELMEVQHF [S13N] | 2.86 |
| SLGKQKVFIIRKLLLDELMEVQHF [S13L] | 2.24 |
| SLGKQKVFIIRKYLLDELMEVQHF [S13Y] | 2.52 |
| SLGKQKVFIIRKQLLDELMEVQHF [S13Q] | 1.69 |
| SLGKQKVFIIRKILLDELMEVQHF [S13I] | 3.3 |
| SLGKQKVFIIRKALLDELMEVQHF [S13A] | 1.43 |
| SLGKQKVFIIRKWLLDELMEVQHF [S13W] | 1.73 |
| SLGKQKVFIIRKCLLDELMEVQHF [S13C] | 2.25 |
| SLGKQKVFIIRKDLLDELMEVQHF [S13D] | 3.49 |
| SLGKQKVFIIRKVLLDELMEVQHF [S13V] | 1.88 |

| Variant | protein stability index |
| --- | --- |
| SLGKQKVFIIRKRLLDELMEVQHF [S13R] | 2.86 |
| SLGKQKVFIIRKHLLDELMEVQHF [S13H] | 2.48 |
| SLGKQKVFIIRKFLLDELMEVQHF [S13F] | 3.49 |
| SLGKQKVFIIRKTLLDELMEVQHF [S13T] | 2.4 |
| SLGKQKVFIIRKPLLDELMEVQHF [S13P] | 1.99 |
| SLGKQKVFIIRKMLLDELMEVQHF [S13M] | 2.22 |
| SLGKQKVFIIRFSLLDELMEVQHF [K12F] | 3.49 |
| SLGKQKVFIIRESLLDELMEVQHF [K12E] | 2.99 |
| SLGKQKVFIIRDSLLDELMEVQHF [K12D] | 3.43 |
| SLGKQKVFIIRWSLLDELMEVQHF [K12W] | 3.49 |
| SLGKQKVFIIRMSLLDELMEVQHF [K12M] | 2.13 |
| SLGKQKVFIIRASLLDELMEVQHF [K12A] | 2.44 |
| SLGKQKVFIIRRSLLDELMEVQHF [K12R] | 2.75 |
| SLGKQKVFIIRPSLLDELMEVQHF [K12P] | 1.62 |
| SLGKQKVFIIRHSLLDELMEVQHF [K12H] | 3.61 |
| SLGKQKVFIIRSSLLDELMEVQHF [K12S] | 1.23 |
| SLGKQKVFIIRQSLLDELMEVQHF [K12Q] | 2.96 |
| SLGKQKVFIIRLSLLDELMEVQHF [K12L] | 2.18 |
| SLGKQKVFIIRNSLLDELMEVQHF [K12N] | 2.32 |
| SLGKQKVFIIRVSLLDELMEVQHF [K12V] | 3.02 |
| SLGKQKVFIIRISLLDELMEVQHF [K12I] | 2.77 |
| SLGKQKVFIIRTSLLDELMEVQHF [K12T] | 3.09 |
